Experiment [1] concerns the target T1, neuropilin-1 by forced expression in M21 cells (transfected neuropilin-1 cDNA) (UniProt O14786 22-923, limits assumed).
T1 construct: whole, on cells; also called NRP-1
The experiment can be described thus: phage binding to M21 cells transfected with neuropilin-1 cDNA against vector alone or untransfected cells, phage titration.
Description: Suspended cells (10⁶ cells in DMEM containing 1% BSA) were incubated with 10⁸ pfu/ml of T7 phage for 1 hr at 4° C. The cells were washed 4 times with the binding buffer, lysed with lysogeny broth containing 1% NP-40, and titrated. Phage internalization assays used the same procedure, except that the cells were incubated with phage at 37° C., and that an acidic buffer (500 mM sodium chloride, 0.1 M glycine, 1% BSA, pH 2.5) was substituted for the binding buffer in the second wash. Inhibitors of binding and internalization were added 20 min prior to incubation with phage. […] Free synthetic peptides, mouse antibodies against human α1, α2, αvβ3, αvβ5, α5β1, α4, or αv integrins and integrin subunits (Chemicon), goat anti-rat neuropilin-1 (R&D Systems, Minneapolis, Minn.), with mouse and a goat IgG isotype controls (Abcam) were also tested.

The target of experiment [2] is T1, neuropilin-1 by forced expression in …. The experiment can be described thus: cell-based or functional assay.

Ends that are not written are not given here.

These results are taken from patent publication US20130343989A1 (SANFORD BURNHAM MEDICAL RESEARCH INSTITUTE, published 2013).

T1 sequence (O14786 22-923 limits assumed): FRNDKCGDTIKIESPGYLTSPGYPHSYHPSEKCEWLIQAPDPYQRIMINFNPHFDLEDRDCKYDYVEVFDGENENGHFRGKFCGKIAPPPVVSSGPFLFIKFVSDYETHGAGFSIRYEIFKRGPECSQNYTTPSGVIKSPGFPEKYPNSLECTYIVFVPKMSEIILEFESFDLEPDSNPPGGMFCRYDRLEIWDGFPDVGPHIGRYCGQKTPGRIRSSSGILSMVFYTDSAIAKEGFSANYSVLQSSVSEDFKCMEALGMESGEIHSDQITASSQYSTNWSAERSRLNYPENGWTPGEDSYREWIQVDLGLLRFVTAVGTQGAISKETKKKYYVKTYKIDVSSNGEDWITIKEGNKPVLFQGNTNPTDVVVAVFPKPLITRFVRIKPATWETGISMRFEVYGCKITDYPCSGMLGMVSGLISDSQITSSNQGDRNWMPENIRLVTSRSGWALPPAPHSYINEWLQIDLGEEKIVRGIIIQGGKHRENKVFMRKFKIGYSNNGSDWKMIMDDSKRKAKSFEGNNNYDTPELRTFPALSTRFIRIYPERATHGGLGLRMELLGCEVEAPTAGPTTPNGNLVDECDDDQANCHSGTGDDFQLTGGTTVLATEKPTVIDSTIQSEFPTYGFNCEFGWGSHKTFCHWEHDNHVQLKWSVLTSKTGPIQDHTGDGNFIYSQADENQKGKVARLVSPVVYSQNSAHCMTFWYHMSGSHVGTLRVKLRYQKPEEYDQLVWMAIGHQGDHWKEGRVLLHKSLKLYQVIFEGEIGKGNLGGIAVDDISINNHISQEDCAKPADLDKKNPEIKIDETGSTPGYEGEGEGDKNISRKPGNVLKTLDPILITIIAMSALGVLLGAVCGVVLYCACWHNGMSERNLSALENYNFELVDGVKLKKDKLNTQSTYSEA

B1: CRGDK phage (T7 phage displaying CRGDK) (peptide)
peptide: CRGDK
modifications: also: displayed on T7 phage
notes: CRGDK is the N-terminal proteolytic fragment of iRGD; also called CRGDK fragment; FAM-CRGDK
With B1, the “fold increase of binding on forced expression of neuropilin-1 in M21 cells” value in experiment [1] was found to be 3.5 fold. In addition, in experiment [2], the “internalization of CRGDK phage into M21 cells” value stood at 3.5 fold.
